Here are results for seven molecules from patent US7094873 (University of Texas, dated 2006).

For test [1], the target named is T1, Fragments of Hsc70 in frame with the GAL4 activation domain (five prey clones, human heart cDNA library in … (human, UniProt P11142 394-646, limits assumed)).
T1 construct: domain: carboxyl terminus
The experiment in a line: yeast two-hybrid.

Test [2] has as its target T2, Fragments of Hsp70 in frame with the GAL4 activation domain (three prey clones, human heart cDNA library in … (human, UniProt P0DMV8 417-641, limits assumed)).
T2 construct: domain: carboxyl terminus; Three clones treated as one molecule
Briefly: yeast two-hybrid.

The next test concerns the target T3, Bovine Hsc70 (Stressgen) (bovine, UniProt P19120 2-650).
T3 construct: also called purified Hsc70
Briefly: GST-hCHIP fragments, in vitro binding assay, immunoblot. (In general: A western blot detects proteins with antibodies after separation by electrophoresis.)

For test [3], the target named is T4, Human Hsp70 (Stressgen) (human, UniProt P0DMV8 1-641). Described as above.
T4 sequence (P0DMV8 whole entry): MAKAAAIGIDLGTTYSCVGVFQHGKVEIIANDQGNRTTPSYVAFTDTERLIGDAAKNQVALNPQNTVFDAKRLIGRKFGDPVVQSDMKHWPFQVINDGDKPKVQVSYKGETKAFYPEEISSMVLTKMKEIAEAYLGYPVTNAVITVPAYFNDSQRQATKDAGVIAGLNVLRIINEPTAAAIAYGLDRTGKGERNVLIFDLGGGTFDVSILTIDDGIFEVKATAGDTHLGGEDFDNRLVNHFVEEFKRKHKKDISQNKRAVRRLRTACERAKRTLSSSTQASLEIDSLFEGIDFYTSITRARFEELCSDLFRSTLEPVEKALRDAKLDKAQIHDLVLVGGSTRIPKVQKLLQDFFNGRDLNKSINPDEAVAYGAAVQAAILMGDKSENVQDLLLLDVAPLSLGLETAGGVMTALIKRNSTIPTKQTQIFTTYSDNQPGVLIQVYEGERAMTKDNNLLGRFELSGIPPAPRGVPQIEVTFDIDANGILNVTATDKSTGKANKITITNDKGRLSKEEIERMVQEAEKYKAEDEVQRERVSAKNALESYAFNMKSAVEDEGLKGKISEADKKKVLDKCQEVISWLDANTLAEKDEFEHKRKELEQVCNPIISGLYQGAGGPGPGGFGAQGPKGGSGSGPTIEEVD
Test [4] addresses SV40 large T antigen (negative control protein, Clontech) (SV40, UniProt P03070 84-708). The experiment in a line: yeast two-hybrid.
The target of test [5] is T4, Human Hsp70 (Stressgen). Briefly: cell-based or functional assay.
For test [6], the target named is T5, GST-Hsc70 (amino acid residues 1-540) (UniProt P11142 1-540).
T5 construct: range 1-540; From E. Ungewickell; also called pGEXHsc70 (1-540); not shown: glutathione S-transferase (GST) of a pGEX vector
T5 sequence (P11142 1-540): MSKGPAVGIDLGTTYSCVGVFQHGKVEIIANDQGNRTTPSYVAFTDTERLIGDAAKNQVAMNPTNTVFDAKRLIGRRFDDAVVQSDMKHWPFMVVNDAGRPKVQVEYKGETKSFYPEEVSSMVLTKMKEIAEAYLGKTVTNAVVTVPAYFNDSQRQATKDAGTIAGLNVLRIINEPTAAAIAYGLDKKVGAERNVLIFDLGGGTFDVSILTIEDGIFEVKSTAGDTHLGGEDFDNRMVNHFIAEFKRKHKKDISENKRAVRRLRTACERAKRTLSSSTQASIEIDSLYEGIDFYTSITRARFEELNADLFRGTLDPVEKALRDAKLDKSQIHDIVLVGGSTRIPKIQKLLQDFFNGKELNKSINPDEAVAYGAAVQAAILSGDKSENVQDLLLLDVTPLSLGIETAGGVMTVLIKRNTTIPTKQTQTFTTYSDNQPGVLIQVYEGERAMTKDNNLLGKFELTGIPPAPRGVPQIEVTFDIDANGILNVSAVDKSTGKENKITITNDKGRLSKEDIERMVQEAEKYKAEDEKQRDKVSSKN
The experiment in a line: GST-Hsc70 deletion mutants on beads with 35S-labeled hCHIP, autoradiography.

Another test concerns the target T6, Human Hsp40 (Stressgen) (human, UniProt P25685 1-340).
T6 construct: also called co-chaperone Hsp40
Briefly: GST pulldown on glutathione-Sepharose beads, immunoblot.

T3 sequence (P19120 2-650 limits assumed): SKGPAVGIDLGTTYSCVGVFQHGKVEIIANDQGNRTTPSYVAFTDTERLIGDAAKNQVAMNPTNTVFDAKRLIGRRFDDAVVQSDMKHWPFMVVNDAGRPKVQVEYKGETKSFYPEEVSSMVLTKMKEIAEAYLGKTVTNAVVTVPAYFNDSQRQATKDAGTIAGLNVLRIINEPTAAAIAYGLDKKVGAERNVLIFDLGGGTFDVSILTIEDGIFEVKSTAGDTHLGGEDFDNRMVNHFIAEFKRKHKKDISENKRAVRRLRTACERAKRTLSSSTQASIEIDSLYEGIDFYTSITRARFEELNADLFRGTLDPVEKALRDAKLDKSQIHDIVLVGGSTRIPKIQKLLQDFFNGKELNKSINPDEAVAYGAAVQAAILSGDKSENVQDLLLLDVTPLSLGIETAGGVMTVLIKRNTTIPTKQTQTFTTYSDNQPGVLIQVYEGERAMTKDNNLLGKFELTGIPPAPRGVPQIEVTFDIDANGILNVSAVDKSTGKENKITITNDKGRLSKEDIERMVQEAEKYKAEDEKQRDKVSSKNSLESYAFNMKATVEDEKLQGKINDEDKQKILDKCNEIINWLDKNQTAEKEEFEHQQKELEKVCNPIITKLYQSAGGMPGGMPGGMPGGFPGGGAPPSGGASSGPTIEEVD
T2 sequence (P0DMV8 417-641 limits assumed): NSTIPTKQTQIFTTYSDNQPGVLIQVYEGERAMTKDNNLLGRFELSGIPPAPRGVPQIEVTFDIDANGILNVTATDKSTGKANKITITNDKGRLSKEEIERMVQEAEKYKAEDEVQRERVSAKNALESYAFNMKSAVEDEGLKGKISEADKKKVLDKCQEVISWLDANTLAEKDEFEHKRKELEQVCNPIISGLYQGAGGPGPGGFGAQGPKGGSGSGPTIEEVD
T6 sequence (P25685 whole entry): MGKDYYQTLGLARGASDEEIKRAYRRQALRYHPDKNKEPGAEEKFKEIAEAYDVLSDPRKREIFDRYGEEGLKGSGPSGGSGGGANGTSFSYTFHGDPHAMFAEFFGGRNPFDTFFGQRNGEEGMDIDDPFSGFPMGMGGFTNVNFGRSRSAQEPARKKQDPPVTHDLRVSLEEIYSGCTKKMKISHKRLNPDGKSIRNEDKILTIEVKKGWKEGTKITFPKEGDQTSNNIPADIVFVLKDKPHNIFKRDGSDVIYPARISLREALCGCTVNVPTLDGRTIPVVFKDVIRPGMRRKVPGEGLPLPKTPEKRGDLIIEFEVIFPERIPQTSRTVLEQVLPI
SV40 large T antigen (negative control protein, Clontech), sequence (P03070 84-708 limits assumed): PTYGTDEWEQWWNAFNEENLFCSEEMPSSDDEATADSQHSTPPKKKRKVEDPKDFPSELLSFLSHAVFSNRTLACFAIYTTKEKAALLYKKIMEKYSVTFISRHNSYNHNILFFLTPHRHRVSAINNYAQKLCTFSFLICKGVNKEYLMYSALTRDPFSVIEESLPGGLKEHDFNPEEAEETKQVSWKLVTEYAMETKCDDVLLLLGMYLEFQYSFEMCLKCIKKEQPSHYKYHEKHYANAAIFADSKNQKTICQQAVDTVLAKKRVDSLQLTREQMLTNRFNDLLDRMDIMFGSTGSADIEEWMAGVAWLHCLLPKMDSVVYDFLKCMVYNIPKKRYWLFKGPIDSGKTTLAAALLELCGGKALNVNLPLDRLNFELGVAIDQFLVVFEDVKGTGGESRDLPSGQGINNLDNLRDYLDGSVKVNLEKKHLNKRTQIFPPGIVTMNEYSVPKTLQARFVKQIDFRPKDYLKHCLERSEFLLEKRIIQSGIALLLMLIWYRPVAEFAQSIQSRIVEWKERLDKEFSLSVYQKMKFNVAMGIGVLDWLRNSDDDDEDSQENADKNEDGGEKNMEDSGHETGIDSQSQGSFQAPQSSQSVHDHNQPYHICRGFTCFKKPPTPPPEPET
T1 sequence (P11142 394-646 limits assumed): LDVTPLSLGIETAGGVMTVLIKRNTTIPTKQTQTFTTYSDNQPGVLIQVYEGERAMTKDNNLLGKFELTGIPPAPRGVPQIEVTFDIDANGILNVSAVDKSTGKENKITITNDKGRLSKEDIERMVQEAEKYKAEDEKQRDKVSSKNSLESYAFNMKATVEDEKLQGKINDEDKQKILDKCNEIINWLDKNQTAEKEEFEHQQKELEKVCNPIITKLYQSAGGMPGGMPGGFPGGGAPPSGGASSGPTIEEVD

B1: lamin C (negative control, yeast two-hybrid) (other, UniProt P02545-2 66-230, looked up)
chain: SEEVVSREVSGIKAAYEAELGDARKTLDSVAKERARLQLELSKVREEFKELKARNTKKEGDLIAAQARLKDLEALLNSKEAALSTALSEKRTLEGELHDLRGQVAKLEAALGEAKKQLQDEMLRRVDAENRLQTMKEELDFQKNIYSEELRETKRRHETRLVEID
Regarding B1, the binding result in test [1] and in test [2] was “no binding” each time.

B2: GST-hCHIP fusion protein (amino acid residues 1-142) (other)
chain: MKGKEEKEGGARLGAGGGSPEKSPSAQELKEQGNRLFVGRKYPEAAACYGRVITRNPLVAVYYTNRALCYLKMQQHEQALADCRRALELDGQSVKAHFFLGQCQLEMESYDEAIANLQRAYSLAKEQRLNFGDDIPSALRIA
notes: Contains the three TPR domains; also called GST construct 2; not shown: glutathione S-transferase (GST) encoded by vector pGEX KG
As to B2, the binding result with Bovine Hsc70 (Stressgen) and with Human Hsp70 (Stressgen) [3] was “no binding” throughout.

B3: Full-length hCHIP fused to the GAL4 DNA-binding domain (bait, plasmid pAS2-1) (other)
chain: MKLLSSIEQACDICRLKKLKCSKEKPKCAKCLKNNWECRYSPKTKRSPLTRAHLTEVESRLERLEQLFLLIFPREDLDMILKMDSLQDIKALLTGLFVQDNVNKDAVTDRLASVETDMPLTLRQHRISATSSSEESSNKGQRQLTVSMKGKEEKEGGARLGAGGGSPEKSPSAQELKEQGNRLFVGRKYPEAAACYGRVITRNPLVAVYYTNRALCYLKMQQHEQALADCRRALELDGQSVKAHFFLGQCQLEMESYDEAIANLQRAYSLAKEQRLNFGDDIPSALRIAKKKRWNSIEERRIHQESELHSYLSRLIAAERERELEECQRNHEGDEDDSHVRAQQACIEAKHDKYMADMDELFSQVDEKRKKRDIPDYLCGKISFELMREPCITPSGITYDRKDIEEHLQRVGHFDPVTRSPLTQEQLIPNLAMKEVIDAFISENGWVEDY
notes: Expressed in yeast strain CG-1945
For the molecule B3, in test [4], the binding result was “no binding”.

B4: Recombinant hCHIP (His-tagged fusion from plasmid pET-hCHIP, expressed in E. coli BL21) (other, not shown: small tags and cut ends)
chain: MKGKEEKEGGARLGAGGGSPEKSPSAQELKEQGNRLFVGRKYPEAAACYGRVITRNPLVAVYYTNRALCYLKMQQHEQALADCRRALELDGQSVKAHFFLGQCQLEMESYDEAIANLQRAYSLAKEQRLNFGDDIPSALRIAKKKRWNSIEERRIHQESELHSYLSRLIAAERERELEECQRNHEGDEDDSHVRAQQACIEAKHDKYMADMDELFSQVDEKRKKRDIPDYLCGKISFELMREPCITPSGITYDRKDIEEHLQRVGHFDPVTRSPLTQEQLIPNLAMKEVIDAFISENGWVEDY
As to B4, in the test with Human Hsp70 (Stressgen) [5], the “luciferase refolding: decrease of the folding activity of Hsp70” value worked out at 65% and the “luciferase refolding: decrease of the folding activity of Hsp70/Hsp40” value amounted to 64%.

B5: 35S-labeled, in vitro translated hCHIP (43-kD S-tagged fusion from vector pCITE-4a) (other)
chain: B4 chain
modifications: 35S-methionine labeled
notes: Made in rabbit reticulocyte lysate; not shown: S-tag and vector-encoded residues of pCITE-4a
For B5, the binding result in test [6] is recorded as “no binding”.

B6: GST-hCHIP fusion protein (amino acid residues 1-303) (other)
chain: B4 chain
notes: also called GST-CHIP; not shown: glutathione S-transferase (GST) encoded by vector pGEX KG
Consider B6, for which the binding result with Bovine Hsc70 (Stressgen) is recorded as “binds”; with Human Hsp40 (Stressgen) it was “no binding”.

B7: GST-hCHIP fusion protein (amino acid residues 1-197) (other)
chain: MKGKEEKEGGARLGAGGGSPEKSPSAQELKEQGNRLFVGRKYPEAAACYGRVITRNPLVAVYYTNRALCYLKMQQHEQALADCRRALELDGQSVKAHFFLGQCQLEMESYDEAIANLQRAYSLAKEQRLNFGDDIPSALRIAKKKRWNSIEERRIHQESELHSYLSRLIAAERERELEECQRNHEGDEDDSHVRAQQ
notes: TPR domains plus the adjacent charged domain; also called GST construct 4; not shown: glutathione S-transferase (GST) encoded by vector pGEX KG
Regarding B7, the binding result with Bovine Hsc70 (Stressgen) and in the test with Human Hsp70 (Stressgen) [3] was “binds” each time.
